Reference: paper doi:10.1101/2022.05.04.490663 (bioRxiv, 2022)

T1: 10xHis-mRuby2-Spt6 (239-1451) (S. cerevisiae, UniProt P23615 239-1451)
T1 sequence (looked up): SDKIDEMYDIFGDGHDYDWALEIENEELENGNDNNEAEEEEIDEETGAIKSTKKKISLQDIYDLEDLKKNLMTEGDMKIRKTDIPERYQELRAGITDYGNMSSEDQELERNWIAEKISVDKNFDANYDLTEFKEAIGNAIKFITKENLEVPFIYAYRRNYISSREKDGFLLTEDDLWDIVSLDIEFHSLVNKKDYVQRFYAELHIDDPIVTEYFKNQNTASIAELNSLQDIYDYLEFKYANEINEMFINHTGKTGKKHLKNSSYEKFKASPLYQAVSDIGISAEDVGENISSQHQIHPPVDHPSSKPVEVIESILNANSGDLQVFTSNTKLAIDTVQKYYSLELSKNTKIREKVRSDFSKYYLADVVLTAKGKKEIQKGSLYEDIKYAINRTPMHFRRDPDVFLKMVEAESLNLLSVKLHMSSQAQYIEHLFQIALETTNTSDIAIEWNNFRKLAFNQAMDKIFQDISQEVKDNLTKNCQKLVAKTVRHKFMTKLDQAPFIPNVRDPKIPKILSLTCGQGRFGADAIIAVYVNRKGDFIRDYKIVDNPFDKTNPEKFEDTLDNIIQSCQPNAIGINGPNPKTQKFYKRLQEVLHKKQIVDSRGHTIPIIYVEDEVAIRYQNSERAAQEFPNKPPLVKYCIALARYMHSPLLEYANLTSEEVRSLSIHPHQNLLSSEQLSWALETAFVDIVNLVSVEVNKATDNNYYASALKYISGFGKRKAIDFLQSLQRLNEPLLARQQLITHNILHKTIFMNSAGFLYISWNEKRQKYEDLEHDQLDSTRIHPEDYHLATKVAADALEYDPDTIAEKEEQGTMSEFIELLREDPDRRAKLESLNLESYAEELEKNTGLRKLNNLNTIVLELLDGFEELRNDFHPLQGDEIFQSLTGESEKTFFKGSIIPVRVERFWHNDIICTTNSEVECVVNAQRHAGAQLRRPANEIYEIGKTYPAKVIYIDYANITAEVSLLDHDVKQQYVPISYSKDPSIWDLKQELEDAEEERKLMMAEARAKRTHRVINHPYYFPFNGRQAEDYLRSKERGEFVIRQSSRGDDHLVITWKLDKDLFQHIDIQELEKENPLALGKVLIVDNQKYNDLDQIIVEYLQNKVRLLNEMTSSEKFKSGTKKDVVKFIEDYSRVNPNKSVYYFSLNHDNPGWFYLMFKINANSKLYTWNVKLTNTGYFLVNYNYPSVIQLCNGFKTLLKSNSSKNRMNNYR

T2: Spt6 (239-1451), untagged (S. cerevisiae, UniProt P23615 239-1451)
T2 sequence (looked up): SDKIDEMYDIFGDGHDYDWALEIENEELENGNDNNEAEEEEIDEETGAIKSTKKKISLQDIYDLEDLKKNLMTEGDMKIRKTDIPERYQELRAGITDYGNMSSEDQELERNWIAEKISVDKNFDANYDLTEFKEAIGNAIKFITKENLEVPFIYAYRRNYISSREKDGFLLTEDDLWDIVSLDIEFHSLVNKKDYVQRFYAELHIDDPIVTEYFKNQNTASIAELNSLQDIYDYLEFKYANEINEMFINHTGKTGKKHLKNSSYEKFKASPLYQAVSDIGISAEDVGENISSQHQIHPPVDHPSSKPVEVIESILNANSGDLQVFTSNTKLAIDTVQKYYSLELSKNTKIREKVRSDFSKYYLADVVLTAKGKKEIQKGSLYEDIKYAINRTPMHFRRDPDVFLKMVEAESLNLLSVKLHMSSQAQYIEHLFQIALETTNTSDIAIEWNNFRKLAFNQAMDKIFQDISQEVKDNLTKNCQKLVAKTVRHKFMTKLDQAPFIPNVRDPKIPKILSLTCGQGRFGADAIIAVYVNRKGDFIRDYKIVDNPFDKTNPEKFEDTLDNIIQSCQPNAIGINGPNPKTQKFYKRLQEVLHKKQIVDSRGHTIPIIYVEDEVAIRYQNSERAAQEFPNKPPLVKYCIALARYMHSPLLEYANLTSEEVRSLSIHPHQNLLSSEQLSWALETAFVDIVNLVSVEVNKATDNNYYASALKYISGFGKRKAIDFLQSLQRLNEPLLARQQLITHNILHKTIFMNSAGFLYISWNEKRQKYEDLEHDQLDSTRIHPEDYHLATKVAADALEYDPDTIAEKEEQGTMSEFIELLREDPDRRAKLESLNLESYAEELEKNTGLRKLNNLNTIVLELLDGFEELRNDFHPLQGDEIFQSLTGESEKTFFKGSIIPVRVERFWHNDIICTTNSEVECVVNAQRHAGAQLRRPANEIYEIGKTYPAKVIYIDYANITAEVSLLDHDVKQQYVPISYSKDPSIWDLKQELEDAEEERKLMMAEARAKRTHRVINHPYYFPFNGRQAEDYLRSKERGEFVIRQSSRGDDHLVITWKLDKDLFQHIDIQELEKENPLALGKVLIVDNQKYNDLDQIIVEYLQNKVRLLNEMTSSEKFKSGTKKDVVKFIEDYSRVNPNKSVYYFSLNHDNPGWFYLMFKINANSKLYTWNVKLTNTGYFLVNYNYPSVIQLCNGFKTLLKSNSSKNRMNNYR

B1: 10xHis-mClover-Cdc73 (full-length Cdc73) (natural protein, S. cerevisiae, UniProt Q06697 1-393, looked up)
chain: MANSLDRLREHLKNGDKLVLKNNEGQSTDDITKATMVETLSSDGSTQDSFPLNEETEIEIDGSLVQLRIIVHCWMNKDSSAADYLADCQNKQLTNVSFLQRTDLINWLSGNTESSQYLKAPGQKGETSDKVDIENKTLAGELSTVKSTTSASLENDSEVSDPVVVETMKHERILVDHNSALRGAKPINFGYLIKDAELKLVQSIKGSLRGSKLPPGHKGAHGRISKTNGSSGGPRKDPIILIPSAASSILTVANIKQFLLESKYVNPRNLPSVPNGLVNIEKNFERISRPIRFIIVDNTRMFTKPEYWDRVVAIFTTGHTWQFNNYQWNSPQELFQRCKGYYFHFAGDSVPQHVQQWNVEKVELDKNKRFKDVEVVRYFWHSLEKELISRGYR
B2: 10xHis-mClover-Cdc73 with the W321A substitution (natural protein, S. cerevisiae, UniProt Q06697 1-393, looked up)
chain: MANSLDRLREHLKNGDKLVLKNNEGQSTDDITKATMVETLSSDGSTQDSFPLNEETEIEIDGSLVQLRIIVHCWMNKDSSAADYLADCQNKQLTNVSFLQRTDLINWLSGNTESSQYLKAPGQKGETSDKVDIENKTLAGELSTVKSTTSASLENDSEVSDPVVVETMKHERILVDHNSALRGAKPINFGYLIKDAELKLVQSIKGSLRGSKLPPGHKGAHGRISKTNGSSGGPRKDPIILIPSAASSILTVANIKQFLLESKYVNPRNLPSVPNGLVNIEKNFERISRPIRFIIVDNTRMFTKPEYWDRVVAIFTTGHTAQFNNYQWNSPQELFQRCKGYYFHFAGDSVPQHVQQWNVEKVELDKNKRFKDVEVVRYFWHSLEKELISRGYR

Legend:
[1] = target: T1, 10xHis-mRuby2-Spt6 (239-1451); assay: native gel or EMSA
[2] = target: T2, Spt6 (239-1451), untagged; assay: fluorescence polarisation

Binder	Kd [1]	Kd [2]	binding result [1]
B1	~320 nM	770 nM	
B2			binds
